In the Human Domainome abundance scans (Beltran et al. 2025):
± gives the uncertainty stated by the source.

B1: Zinc finger protein ZIC 2, residues 250 to 295; numbered along this chain, O95409 (parent)
chain: QCIKQELICKWIDPEQLSNPKKSCNKTFSTMHELVTHVSVEHVGGP

Variants of: B1
Test: abundance fitness (aPCA) (normalised: wild type 0, dead -1); higher = more abundant; growth selection in yeast, the domain comes from the species named
Details: Homo sapiens

Point of comparison: QCIKQELICKWIDPEQLSNPKKSCNKTFSTMHDLVTHVSVEHVGGP, abundance fitness 0.086 ± 0.1. Against it:
- QCIKQELICKWIDPEQLSNPKKSCNKTFSTMHCLVTHVSVEHVGGP — lower, -0.777 ± 0.11
- QCIKQELICKWIDPEQLSNPKKSCNKTFSTMHGLVTHVSVEHVGGP — lower, -0.166 ± 0.084
- QCIKQELICKWIDPEQLSNPKKSCNKTFSTMHPLVTHVSVEHVGGP — lower, -0.826 ± 0.12
- QCIKQELICKWIDPEQLSNPKKSCNKTFSTMHHLVTHVSVEHVGGP — lower, -0.434 ± 0.14
- QCIKQELICKWIDPEQLSNPKKSCNKTFSTMHYLVTHVSVEHVGGP — lower, -1.01 ± 0.13
- QCIKQELICKWIDPEQLSNPKKSCNKTFSTMHLLVTHVSVEHVGGP — lower, -0.735 ± 0.095
- QCIKQELICKWIDPEQLSNPKKSCNKTFSTMHWLVTHVSVEHVGGP — lower, -0.979 ± 0.1
- QCIKQELICKWIDPEQLSNPKKSCNKTFSTMHMLVTHVSVEHVGGP — lower, -0.751 ± 0.11
- QCIKQELICKWIDPEQLSNPKKSCNKTFSTMHRLVTHVSVEHVGGP — lower, -0.69 ± 0.09
- QCIKQELICKWIDPEQLSNPKKSCNKTFSTMHALVTHVSVEHVGGP — lower, -0.342 ± 0.088
- QCIKQELICKWIDPEQLSNPKKSCNKTFSTMHKLVTHVSVEHVGGP — lower, -0.615 ± 0.12
- QCIKQELICKWIDPEQLSNPKKSCNKTFSTMHNLVTHVSVEHVGGP — lower, -0.726 ± 0.12
- QCIKQELICKWIDPEQLSNPKKSCNKTFSTMHFLVTHVSVEHVGGP — lower, -1.03 ± 0.14
- QCIKQELICKWIDPEQLSNPKKSCNKTFSTMHILVTHVSVEHVGGP — lower, -0.932 ± 0.14
- QCIKQELICKWIDPEQLSNPKKSCNKTFSTMHQLVTHVSVEHVGGP — within error, -0.046 ± 0.11
- QCIKQELICKWIDPEQLSNPKKSCNKTFSTMHVLVTHVSVEHVGGP — lower, -0.838 ± 0.092
- QCIKQELICKWIDPEQLSNPKKSCNKTFSTMHSLVTHVSVEHVGGP — lower, -0.452 ± 0.092
- QCIKQELICKWIDPEQLSNPKKSCNKTFVTMHELVTHVSVEHVGGP — lower, -0.167 ± 0.091
- QCIKQELICKWIDPEQLSNPKKSCNKTFQTMHELVTHVSVEHVGGP — within error, 0.114 ± 0.11
- QCIKQELICKWIDPEQLSNPKKSCNKTFPTMHELVTHVSVEHVGGP — within error, 0.209 ± 0.1
- QCIKQELICKWIDPEQLSNPKKSCNKTFNTMHELVTHVSVEHVGGP — lower, -0.213 ± 0.13
- QCIKQELICKWIDPEQLSNPKKSCNKTFWTMHELVTHVSVEHVGGP — lower, -0.386 ± 0.095
- QCIKQELICKWIDPEQLSNPKKSCNKTFTTMHELVTHVSVEHVGGP — higher, 0.551 ± 0.11
- QCIKQELICKWIDPEQLSNPKKSCNKTFRTMHELVTHVSVEHVGGP — within error, 0.236 ± 0.084
- QCIKQELICKWIDPEQLSNPKKSCNKTFSTMVELVTHVSVEHVGGP — lower, -0.196 ± 0.087
- QCIKQELICKWIDPEQLSNPKKSCNKTFSTMEELVTHVSVEHVGGP — within error, 0.082 ± 0.096
- QCIKQELICKWIDPEQLSNPKKSCNKTFSTMYELVTHVSVEHVGGP — lower, -0.573 ± 0.12
- QCIKQELICKWIDPEQLSNPKKSCNKTFSTMMELVTHVSVEHVGGP — lower, -0.263 ± 0.095
- QCIKQELICKWIDPEQLSNPKKSCNKTFSTMFELVTHVSVEHVGGP — within error, 0.012 ± 0.11
- QCIKQELICKWIDPEQLSNPKKSCNKTFSTMCELVTHVSVEHVGGP — lower, -0.172 ± 0.1
- QCIKQELICKWIDPEQLSNPKKSCNKTFSTMSELVTHVSVEHVGGP — within error, 0.011 ± 0.089
- QCIKQELICKWIDPEQLSNPKKSCNKTFSTMPELVTHVSVEHVGGP — within error, 0.171 ± 0.091
- QCIKQELICKWIDPEQLSNPKKSCNKTFSTMDELVTHVSVEHVGGP — within error, 0.092 ± 0.098
- QCIKQELICKWIDPEQLSNPKKSCNKTFSTMKELVTHVSVEHVGGP — within error, -0.011 ± 0.11
- QCIKQELICKWIDPEQLSNPKKSCNKTFSTMLELVTHVSVEHVGGP — lower, -0.471 ± 0.089
- QCIKQELICKWIDPEQLSNPKKSCNKTFSTMAELVTHVSVEHVGGP — within error, 0.14 ± 0.086
- QCIKQELICKWIDPEQLSNPKKSCNKTFSTMWELVTHVSVEHVGGP — within error, 0.163 ± 0.094
- QCIKQELICKWIDPEQLSNPKKSCNKTFSTMNELVTHVSVEHVGGP — within error, 0.275 ± 0.11
- QCIKQELICKWIDPEQLSNPKKSCNKTFSTMGELVTHVSVEHVGGP — within error, -0.044 ± 0.086
- QCIKQELICKWIDPEQLSNPKKSCNKTFSTMIELVTHVSVEHVGGP — lower, -0.211 ± 0.12
- QCIKQELICKWIDPEQLSNPKKSCNKTFSTMRELVTHVSVEHVGGP — within error, 0.084 ± 0.086
- QCIKQELICKWIDPEQLSNPKKSCNKTFSTMTELVTHVSVEHVGGP — within error, 0.037 ± 0.091
- QCIKQELICKWIDPEQLSNPKKSCNKTFSTKHELVTHVSVEHVGGP — higher, 0.518 ± 0.097
- QCIKQELICKWIDPEQLSNPKKSCNKTFSTIHELVTHVSVEHVGGP — higher, 0.318 ± 0.1
- QCIKQELICKWIDPEQLSNPKKSCNKTFSTNHELVTHVSVEHVGGP — higher, 0.622 ± 0.11
- QCIKQELICKWIDPEQLSNPKKSCNKTFSTSHELVTHVSVEHVGGP — higher, 0.321 ± 0.089
- QCIKQELICKWIDPEQLSNPKKSCNKTFSTPHELVTHVSVEHVGGP — within error, -0.079 ± 0.098
- QCIKQELICKWIDPEQLSNPKKSCNKTFSTGHELVTHVSVEHVGGP — within error, 0.079 ± 0.083
- QCIKQELICKWIDPEQLSNPKKSCNKTFSTAHELVTHVSVEHVGGP — within error, 0.12 ± 0.085
- QCIKQELICKWIDPEQLSNPKKSCNKTFSTHHELVTHVSVEHVGGP — higher, 0.436 ± 0.13
- QCIKQELICKWIDPEQLSNPKKSCNKTFSTLHELVTHVSVEHVGGP — lower, -0.377 ± 0.088
- QCIKQELICKWIDPEQLSNPKKSCNKTFSTCHELVTHVSVEHVGGP — lower, -0.569 ± 0.12
- QCIKQELICKWIDPEQLSNPKKSCNKTFSTVHELVTHVSVEHVGGP — lower, -0.363 ± 0.086
- QCIKQELICKWIDPEQLSNPKKSCNKTFSTWHELVTHVSVEHVGGP — lower, -0.602 ± 0.096
- QCIKQELICKWIDPEQLSNPKKSCNKTFSTQHELVTHVSVEHVGGP — higher, 0.438 ± 0.095
